# Data taken from publication PMC5062252, “High-resolution crystal structure of the therapeutic antibody pembrolizumab bound to the human PD-1” (Scientific Reports, 2016).
# T1: extracellular domain of human PD-1 (PD-1ECD), residues 32-160, C93S (human, C93S (stands in the printed letters))
# T1 construct: additional N-terminal residues retained after restriction site cloning; additional C-terminal residues retained after cloning and TEV cleavage; also called programmed cell death-1; CD279; not shown: His6, C-terminal, cleaved
# T1 chain: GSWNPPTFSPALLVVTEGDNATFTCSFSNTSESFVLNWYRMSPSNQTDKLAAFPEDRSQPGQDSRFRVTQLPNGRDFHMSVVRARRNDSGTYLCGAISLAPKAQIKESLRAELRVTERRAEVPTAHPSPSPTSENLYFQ
# B1: Fv fragment of pembrolizumab (PemFv) (other)
# VL: EIVLTQSPATLSLSPGERATLSCRASKGVSTSGYSYLHWYQQKPGQAPRLLIYLASYLESGVPARFSGSGSGTDFTLTISSLEPEDFAVYYCQHSRDLPLTFGGGTKVEIKTSENLYFQ
# VH: QVQLVQSGVEVKKPGASVKVSCKASGYTFTNYYMYWVRQAPGQGLEWMGGINPSNGGTNFNEKFKNRVTLTTDSSTTTAYMELKSLQFDDTAVYYCARRDYRFDMGFDYWGQGTTVTVSS
# notes: pembrolizumab light chain variable region (PemVL); additional C-terminal residues retained after TEV cleavage; pembrolizumab heavy chain variable region (PemVH); Fv fragment: VL and VH as two separate chains, not linked; also called pembrolizumab Fv; Keytruda; not shown: His6, C-terminal, cleaved; copies: 1 + 1
# Molecular target: T1, extracellular domain of human PD-1 …
# Assay: SEC; analytical gel filtration of the PemFv/PD-1ECD complex; data not shown
# Details: both partners purified
binder,measurement,value
B1,stoichiometry N,1
